Measured values as given in patent publication US20090246142A1, “Triggered Self-Assembly of Nanoparticles In Vivo” (MASSACHUSETTS INSTITUTE OF TECHNOLOGY, priority 2006, published 2009).
Square brackets hold non-standard residues; d marks the D form. pY = N[C@@H](Cc1ccc(OP(=O)(O)O)cc1)C(=O)O; Ahx = NCCCCCC(=O)O

Legend:
[1] = system: Abl kinase; test: Kinase-directed TSAC assembly, MRI T2 mapping; assay type: biochemical; details: free phosphopeptide added to Abl kinase-assembled TSACs
Method: Kinase reaction was initiated by adding indicated amount of Abl kinase (New England Biolabs). TSAC assemblies were characterized by DLS over time or MRI.
All TSAC solutions were prepared in final concentration of 10 μg Fe/ml (12 nM TSAC concentration) in 70 μl of kinase reaction buffer. TSAC mixtures were incubated at 30° C. for 3 hours after kinase additions (0, 0.05, 0.1, 0.2, 0.5 U/μl), and then MRI images were taken using a 4.7 T Bruker magnet (7 cm bore) using T2-mapping Carr-Purcell-Meiboom-Gill (CPMG) pulse sequence. To reverse assembly, 4 U/μl YOP phosphatase or 0.1 mM free pY-peptide was added to an assembled TSAC solution containing 0.2 U/μl Abl kinase. The MRI image was taken after 10 minutes at room temperature.

[2] = biological target: T1, Crk SH2 domain (Homo sapiens, UniProt P46108); test: SH2-binding peptide-mediated TSAC assembly, dynamic light scattering
T1 construct: The Crk SH2 domain was genetically modified to contain an N-terminal cysteine; GST (N, cleaved yes); made in house; host or cells: E. coli BL21-Gold(DE3)

[3] = biological target: Crk SH2 (Homo sapiens, UniProt P46108); details: free peptide; cited from earlier work
Crk SH2, sequence (P46108 13-118 limits assumed): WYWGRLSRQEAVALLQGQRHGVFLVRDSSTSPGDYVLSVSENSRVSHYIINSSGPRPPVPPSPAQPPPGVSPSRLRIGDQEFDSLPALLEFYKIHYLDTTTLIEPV

T1 sequence (P46108 13-118 limits assumed): as above
Abl kinase, sequence (P00521 128-379): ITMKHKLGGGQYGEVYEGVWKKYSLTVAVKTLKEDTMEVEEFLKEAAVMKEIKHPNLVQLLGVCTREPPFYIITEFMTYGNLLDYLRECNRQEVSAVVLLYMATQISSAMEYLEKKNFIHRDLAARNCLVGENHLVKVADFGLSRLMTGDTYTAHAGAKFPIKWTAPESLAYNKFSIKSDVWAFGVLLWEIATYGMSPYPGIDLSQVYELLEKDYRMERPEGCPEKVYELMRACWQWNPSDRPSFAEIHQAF

Substance	effect of free substrate on kinase-directed T2 enhancement [1]	reversal of pY TSAC / SH2 TSAC assembly by added free peptide ([2]; 200 μM free peptide added after 10 minute incubation)	effect of free peptide on pY TSAC / SH2 TSAC assembly ([2]; 200 μM free peptide present)	binding affinity to Crk SH2 [3]
TAMRA-(Ahx)SRVGEEEHVpYSFPNKQKSAEC-CONH2 [free pY-Abl substrate]	lost	–	–	–
TAMRA-C(Ahx)QpYDHPNI-CONH2 ({TAMRA}-C[Ahx]Q[pY]DHPNI-NH2; not fully specified) [free pY peptide]	–	rapidly disassembled	inhibited	low μM
